Assays:
[1] = biological target: 405C gp140 trimer (405C gp140-foldon, gp140Fd) (HIV-1 clade C, isolate 405C); assay: SPR; CD4 coupled to CM5 chip, Env flowed over; 1:1 model
[2] = biological target: 459C gp120 monomer (HIV-1 clade C, isolate 459C); assay: as above
[3] = biological target: 459C gp140 trimer (459C gp140-foldon, gp140Fd) (HIV-1 clade C, isolate 459C); assay: as above
[4] = biological target: 939C gp120 monomer (HIV-1 clade C, isolate 939C); assay: as above
[5] = biological target: 939C gp140 trimer (939C gp140-foldon, gp140Fd) (HIV-1 clade C, isolate 939C); assay: as above
[6] = biological target: 405C gp140 trimer (405C gp140-foldon, gp140Fd) (HIV-1 clade C, isolate 405C); assay: SPR; CD4 coupled to CM5 chip, Env flowed over; 1:1 model; 405C gp140 trimer as analyte
[7] = biological target: 405C gp120 monomer (HIV-1 clade C, isolate 405C); assay: SPR; CD4 coupled to CM5 chip, Env flowed over; 1:1 model; 405C gp120 monomer as analyte
[8] = biological target: 405C gp140 trimer (405C gp140-foldon, gp140Fd) (HIV-1 clade C, isolate 405C); assay: SPR; IgG captured on protein A, Env flowed over; 1:1 model
[9] = biological target: 459C gp140 trimer (459C gp140-foldon, gp140Fd) (HIV-1 clade C, isolate 459C); assay: as above
[10] = biological target: 939C gp140 trimer (939C gp140-foldon, gp140Fd) (HIV-1 clade C, isolate 939C); assay: as above
[11] = biological target: 405C gp120 monomer (HIV-1 clade C, isolate 405C); assay: SPR; IgG captured on protein A, Env flowed over; 1:1 model (monomer rates are rough estimates)
[12] = biological target: 459C gp120 monomer (HIV-1 clade C, isolate 459C); assay: as above
[13] = biological target: 405C full-length gp160 Env on SHIV (HIV-1 clade C, isolate 405C); assay: cell-based or functional assay
[14] = biological target: 459C full-length gp160 Env on SHIV (HIV-1 clade C, isolate 459C); assay: cell-based or functional assay
[15] = biological target: 405C gp140 trimer (405C gp140-foldon, gp140Fd) (HIV-1 clade C, isolate 405C); assay: SPR; 3,500 RU IgG captured on protein A, Env flowed over; 1:1 model
[16] = biological target: 459C gp140 trimer (459C gp140-foldon, gp140Fd) (HIV-1 clade C, isolate 459C); assay: as above
[17] = biological target: 939C gp140 trimer (939C gp140-foldon, gp140Fd) (HIV-1 clade C, isolate 939C); assay: as above
[18] = biological target: 405C gp140 trimer (405C gp140-foldon, gp140Fd) (HIV-1 clade C, isolate 405C); assay: SPR; 4,500 RU IgG captured on protein A, Env flowed over
[19] = biological target: 939C gp140 trimer (939C gp140-foldon, gp140Fd) (HIV-1 clade C, isolate 939C); assay: as above
[20] = biological target: 405C gp140 trimer (405C gp140-foldon, gp140Fd) (HIV-1 clade C, isolate 405C); assay: SPR; IgG captured on protein A, trimer flowed over
[21] = biological target: 405C gp120 monomer (HIV-1 clade C, isolate 405C); assay: SPR; IgG captured on protein A, Env flowed over; 1:1 model
[22] = biological target: 459C gp120 monomer (HIV-1 clade C, isolate 459C); assay: as above
[23] = biological target: 939C gp120 monomer (HIV-1 clade C, isolate 939C); assay: as above
[24] = biological target: 405C gp140 trimer (405C gp140-foldon, gp140Fd) (HIV-1 clade C, isolate 405C); assay: SPR (Example 8); IgG captured on protein A, trimer flowed over
[25] = biological target: 405C gp140 trimer (405C gp140-foldon, gp140Fd) (HIV-1 clade C, isolate 405C); assay: SPR; 17b IgG captured on protein A, trimer at 1000 nM with against without bound CD4
[26] = biological target: 459C gp140 trimer (459C gp140-foldon, gp140Fd) (HIV-1 clade C, isolate 459C); assay: as above
[27] = biological target: 939C gp140 trimer (939C gp140-foldon, gp140Fd) (HIV-1 clade C, isolate 939C); assay: as above

Question: What does the source list for “Soluble two-domain CD4 (from UniProt P01730 26-208) (receptor)”?
Answer: koff [1]: 0.000196 s⁻¹; kon [1]: 15400 M⁻¹ s⁻¹; Kd [2]: 26.9 nM; koff [2]: 0.00049 s⁻¹; kon [2]: 18200 M⁻¹ s⁻¹; Kd [3]: 4.17 nM; koff [3]: 9.89e-05 s⁻¹; kon [3]: 23700 M⁻¹ s⁻¹; Kd [4]: 15.9 nM; koff [4]: 0.00031 s⁻¹; kon [4]: 19500 M⁻¹ s⁻¹; Kd [5]: 12.5 nM; koff [5]: 0.000206 s⁻¹; kon [5]: 16500 M⁻¹ s⁻¹; Kd [6]: 12.3 nM; koff [7]: 0.000327 s⁻¹; kon [7]: 5560 M⁻¹ s⁻¹

Question: What does the source list for PGT121 IgG (antibody)?
Answer: Kd [8]: 10.6 nM; koff [8]: 0.000104 s⁻¹; kon [8]: 9780 M⁻¹ s⁻¹; Kd [9]: 5.56 nM; koff [9]: 8.73e-05 s⁻¹; kon [9]: 15700 M⁻¹ s⁻¹; Kd [10]: 25.7 nM; koff [10]: 0.00043 s⁻¹; kon [10]: 16700 M⁻¹ s⁻¹; Kd [11]: 64.2 nM; koff [11]: 0.000492 s⁻¹; kon [11]: 7670 M⁻¹ s⁻¹; Kd [12]: 123 nM; koff [12]: 0.000824 s⁻¹; kon [12]: 6720 M⁻¹ s⁻¹

Question: Which results are given for b12 IgG (antibody)?
Answer: IC50 Titers (TZM.bl cells, ug/ml) [13]: > 50 µg/mL; IC50 Titers (TZM.bl cells, ug/ml) [14]: > 50 µg/mL

Question: How did the IC50 Titers (TZM.bl cells, ug/ml) [13] turn out when PG9 IgG (antibody) was run?
Answer: 17.4 µg/mL

Question: And the IC50 Titers (TZM.bl cells, ug/ml) [14]?
Answer: > 50 µg/mL

Question: And the Kd [15]?
Answer: 335 nM

Question: And the koff [15]?
Answer: 0.000662 s⁻¹

Question: What about the kon [15] of the same substance?
Answer: 1970 M⁻¹ s⁻¹

Question: What about the Kd [16] of the same substance?
Answer: 448 nM

Question: What about the koff [16] of the same substance?
Answer: 0.0032 s⁻¹

Question: What about the kon [16] of the same substance?
Answer: 7150 M⁻¹ s⁻¹

Question: What about the Kd [17] of the same substance?
Answer: 157 nM

Question: And the koff [17]?
Answer: 0.00126 s⁻¹

Question: And the kon [17]?
Answer: 8010 M⁻¹ s⁻¹

Question: With “sCD4 (soluble CD4) (from UniProt P01730 26-208) (receptor)” as the substance, how does the IC50 Titers (TZM.bl cells, ug/ml) [13] read?
Answer: > 50 µg/mL

Question: And the IC50 Titers (TZM.bl cells, ug/ml) [14]?
Answer: 48.7 µg/mL

Question: How did the IC50 Titers (TZM.bl cells, ug/ml) [13] turn out when PG16 IgG (antibody) was run?
Answer: 2.05 µg/mL

Question: What about the IC50 Titers (TZM.bl cells, ug/ml) [14] of the same substance?
Answer: 6.7 µg/mL

Question: What about the Kd [18] of the same substance?
Answer: 1450 nM

Question: And the koff [18]?
Answer: 0.00151 s⁻¹

Question: And the Kd [19]?
Answer: 1260 nM

Question: What about the koff [19] of the same substance?
Answer: 0.00286 s⁻¹

Question: And the kon [19]?
Answer: 2410 M⁻¹ s⁻¹

Question: For 4E10 IgG (antibody), which IC50 Titers (TZM.bl cells, ug/ml) [13] is on record?
Answer: 18.2 µg/mL

Question: And the IC50 Titers (TZM.bl cells, ug/ml) [14]?
Answer: > 50 µg/mL

Question: What does the source list for PGT128 IgG (antibody)?
Answer: IC50 Titers (TZM.bl cells, ug/ml) [13]: 45.9 µg/mL; IC50 Titers (TZM.bl cells, ug/ml) [14]: 0.65 µg/mL

Question: How did the Kd [8] turn out when PGT126 IgG (antibody) was run?
Answer: 9.83 nM

Question: And the koff [8]?
Answer: 0.000282 s⁻¹

Question: And the kon [8]?
Answer: 28700 M⁻¹ s⁻¹

Question: And the Kd [9]?
Answer: 8.3 nM

Question: What about the koff [9] of the same substance?
Answer: 0.000243 s⁻¹

Question: And the kon [9]?
Answer: 29500 M⁻¹ s⁻¹

Question: What about the Kd [10] of the same substance?
Answer: 6.63 nM

Question: And the koff [10]?
Answer: 0.000232 s⁻¹

Question: What about the kon [10] of the same substance?
Answer: 35000 M⁻¹ s⁻¹

Question: And the Kd [11]?
Answer: 38.3 nM

Question: What about the koff [11] of the same substance?
Answer: 0.0012 s⁻¹

Question: And the kon [11]?
Answer: 31400 M⁻¹ s⁻¹

Question: And the Kd [12]?
Answer: 41.3 nM

Question: What about the koff [12] of the same substance?
Answer: 0.000592 s⁻¹

Question: What about the kon [12] of the same substance?
Answer: 14800 M⁻¹ s⁻¹

Question: With 2F5 IgG (antibody) as the substance, how does the IC50 Titers (TZM.bl cells, ug/ml) [13] read?
Answer: > 50 µg/mL

Question: And the IC50 Titers (TZM.bl cells, ug/ml) [14]?
Answer: > 50 µg/mL

Question: Which IC50 Titers (TZM.bl cells, ug/ml) [13] does the source give for 2G12 IgG (antibody) here?
Answer: > 50 µg/mL

Question: What about the IC50 Titers (TZM.bl cells, ug/ml) [14] of the same substance?
Answer: > 50 µg/mL

Question: Which IC50 Titers (TZM.bl cells, ug/ml) [13] does the source give for 3BNC117 IgG (antibody) here?
Answer: 4.94 µg/mL

Question: And the IC50 Titers (TZM.bl cells, ug/ml) [14]?
Answer: 5.97 µg/mL

Question: And the fold lower magnitude of binding than 459C and 939C trimers [20]?
Answer: 5 fold

Question: What about the Kd [21] of the same substance?
Answer: 85.8 nM

Question: And the koff [21]?
Answer: 0.00042 s⁻¹

Question: And the kon [21]?
Answer: 4900 M⁻¹ s⁻¹

Question: And the Kd [8]?
Answer: 78.3 nM

Question: And the koff [8]?
Answer: 0.000322 s⁻¹

Question: And the kon [8]?
Answer: 4110 M⁻¹ s⁻¹

Question: What about the Kd [22] of the same substance?
Answer: 95.1 nM

Question: What about the koff [22] of the same substance?
Answer: 0.0005 s⁻¹

Question: And the kon [22]?
Answer: 6130 M⁻¹ s⁻¹

Question: And the Kd [9]?
Answer: 1.24 nM

Question: And the koff [9]?
Answer: 1.04e-05 s⁻¹

Question: And the kon [9]?
Answer: 8500 M⁻¹ s⁻¹

Question: What about the Kd [23] of the same substance?
Answer: 172 nM

Question: And the koff [23]?
Answer: 0.000961 s⁻¹

Question: And the kon [23]?
Answer: 6450 M⁻¹ s⁻¹

Question: And the Kd [10]?
Answer: 27.1 nM

Question: What about the koff [10] of the same substance?
Answer: 0.000224 s⁻¹

Question: And the kon [10]?
Answer: 8330 M⁻¹ s⁻¹

Question: What about the fold lower magnitude of binding than Env 459C and 939C trimers [24] of the same substance?
Answer: 5 fold

Question: Which results are given for 17b IgG (antibody)?
Answer: fold increase in magnitude of binding when the trimer is bound to CD4 [25]: 4 fold; fold increase in magnitude of binding when the trimer is bound to CD4 [26]: 4 fold; fold increase in magnitude of binding when the trimer is bound to CD4 [27]: 4 fold

Question: How did the IC50 Titers (TZM.bl cells, ug/ml) [13] turn out when VRC01 IgG (antibody) was run?
Answer: 13.3 µg/mL

Question: What about the IC50 Titers (TZM.bl cells, ug/ml) [14] of the same substance?
Answer: 11.9 µg/mL

Question: What about the fold lower magnitude of binding than 459C and 939C trimers [20] of the same substance?
Answer: 5 fold

Question: And the Kd [21]?
Answer: 35.3 nM

Question: And the koff [21]?
Answer: 0.000278 s⁻¹

Question: And the kon [21]?
Answer: 7870 M⁻¹ s⁻¹

Question: And the Kd [8]?
Answer: 7.42 nM

Question: What about the koff [8] of the same substance?
Answer: 4.52e-05 s⁻¹

Question: What about the kon [8] of the same substance?
Answer: 6090 M⁻¹ s⁻¹

Question: And the Kd [22]?
Answer: 328 nM

Question: What about the koff [22] of the same substance?
Answer: 0.00109 s⁻¹

Question: And the kon [22]?
Answer: 3320 M⁻¹ s⁻¹

Question: And the Kd [9]?
Answer: 7.5 nM

Question: And the koff [9]?
Answer: 4.75e-05 s⁻¹

Question: And the kon [9]?
Answer: 6990 M⁻¹ s⁻¹

Question: What about the Kd [23] of the same substance?
Answer: 57.3 nM

Question: And the koff [23]?
Answer: 0.000249 s⁻¹

Question: What about the kon [23] of the same substance?
Answer: 4350 M⁻¹ s⁻¹

Question: And the Kd [10]?
Answer: 3.52 nM

Question: And the koff [10]?
Answer: 1.55e-05 s⁻¹

Question: What about the kon [10] of the same substance?
Answer: 4400 M⁻¹ s⁻¹

Question: And the fold lower magnitude of binding than Env 459C and 939C trimers [24]?
Answer: 5 fold

Reference: US20160243215A1
